For one assay, the target named is T1, GPC3 on HepG2 cells (human, UniProt P51654 25-554).
T1 construct: whole, on cells; also called glypican-3
The assay is described as follows: FACS on HepG2 cells.

For assay [1], the target named is T2, monkey GPC3-His protein (monkey).
T2 construct: Bought protein; also called monkey GPC3 protein
Nature of the assay: ELISA, monkey GPC3-His coated; antibody 0.28 nM. (ELISA stands for enzyme-linked immunosorbent assay.)
Method: (§1) The specific method is described as follows: The antigen protein was diluted with PBS to a final concentration of 1 μg/mL, and the diluent was added to a 96-well ELISA plate at 50 μL/well. The plate was sealed with a plastic film and incubated at 4° C. overnight, washed twice with PBS the next day, and a blocking solution [PBS+2% (w/w) BSA] was added for blocking at room temperature for 2 h. […] After incubation at 37° C. for 2 h, the plate was washed 3 times with PBS. A horseradish peroxidase (HRP)-labeled secondary antibody (purchased from Merck, Cat. No. AP113P) was added for incubation at 37° C. for 1 h, and the plate was washed 5 times with PBS. A TMB substrate was added at 50 μL/well for incubation at room temperature for 10 min, then a stop solution (1.0M HCl) was added at 50 μL/well.

The target in assay [2] is T2, monkey GPC3-His protein. Nature of the assay: ELISA, monkey GPC3-His coated; antibody 1.39 nM.
Method: as §1
For assay [3], the target named is T2, monkey GPC3-His protein. The assay is described as follows: ELISA, monkey GPC3-His coated; antibody 6.94 nM.
Method: as §1
In assay [4] the target is T2, monkey GPC3-His protein. The assay is described as follows: ELISA, monkey GPC3-His coated; antibody 0.002 nM.
Method: as §1
In assay [5] the target is T2, monkey GPC3-His protein. The assay is described as follows: ELISA, monkey GPC3-His coated; antibody 0.011 nM.
Method: as §1
For assay [6], the target named is T2, monkey GPC3-His protein. The assay is described as follows: ELISA, monkey GPC3-His coated; antibody 0.056 nM.
Method: as §1
The target of assay [7] is T2, monkey GPC3-His protein. The assay is described as follows: ELISA, monkey GPC3-His coated; antibody 34.72 nM.
Method: as §1
Assay [8] addresses T2, monkey GPC3-His protein. Nature of the assay: ELISA, monkey GPC3-His coated; antibody 0.0004 nM.
Method: as §1
The target of assay [9] is T3, murine GPC3-his protein (murine, UniProt Q8CFZ4 25-558, limits assumed).
T3 construct: Bought protein; also called mouse GPC3 protein; murine GPC3 protein; not shown: His tag
Nature of the assay: ELISA, murine GPC3-his coated; antibody 0.02 nM.

Assay [10] concerns the target T3, murine GPC3-his protein. Nature of the assay: ELISA, murine GPC3-his coated; antibody 0.11 nM.
Method: as §1
Assay [11] deals with T3, murine GPC3-his protein. The assay is described as follows: ELISA, murine GPC3-his coated; antibody 0.53 nM.
Method: as §1
Assay [12] deals with T3, murine GPC3-his protein. Nature of the assay: ELISA, murine GPC3-his coated; antibody 2.67 nM.
Method: as §1
The target in assay [13] is T2, monkey GPC3-His protein. The assay is described as follows: ELISA, monkey GPC3-His coated; antibody 0.02 nM.
Method: as §1
Assay [14] deals with T2, monkey GPC3-His protein. Nature of the assay: ELISA, monkey GPC3-His coated; antibody 0.11 nM.
Method: as §1
Assay [15] concerns the target T2, monkey GPC3-His protein. The assay is described as follows: ELISA, monkey GPC3-His coated; antibody 0.53 nM.
Method: as §1
The target in assay [16] is T2, monkey GPC3-His protein. The assay is described as follows: ELISA, monkey GPC3-His coated; antibody 2.67 nM.
Method: as §1
The target in assay [17] is T3, murine GPC3-his protein. The assay is described as follows: ELISA, murine GPC3-his coated; antibody 0.004 nM.
Method: as §1
Assay [18] has as its target T3, murine GPC3-his protein. Nature of the assay: ELISA, murine GPC3-his coated; antibody 13.33 nM.
Method: as §1
Assay [19] has as its target T3, murine GPC3-his protein. The assay is described as follows: ELISA, murine GPC3-his coated; antibody 66.66 nM.
Method: as §1
Assay [20] deals with T2, monkey GPC3-His protein. Nature of the assay: ELISA, monkey GPC3-His coated; antibody 0.004 nM.
Method: as §1
The target of assay [21] is T2, monkey GPC3-His protein. The assay is described as follows: ELISA, monkey GPC3-His coated; antibody 13.33 nM.
Method: as §1
The target in assay [22] is T2, monkey GPC3-His protein. The assay is described as follows: ELISA, monkey GPC3-His coated; antibody 66.66 nM.
Method: as §1
The target of assay [23] is T3, murine GPC3-his protein. The assay is described as follows: ELISA, murine GPC3-his coated; antibody 0.0008 nM.
Method: as §1
For assay [24], the target named is T2, monkey GPC3-His protein. Nature of the assay: ELISA, monkey GPC3-His coated; antibody 0.0008 nM.
Method: as §1

Where a chain is given by its changes, count along the chain named.

In general, EC50 refers to the concentration at which the effect is half-maximal.

T3 sequence (Q8CFZ4 25-558 limits assumed): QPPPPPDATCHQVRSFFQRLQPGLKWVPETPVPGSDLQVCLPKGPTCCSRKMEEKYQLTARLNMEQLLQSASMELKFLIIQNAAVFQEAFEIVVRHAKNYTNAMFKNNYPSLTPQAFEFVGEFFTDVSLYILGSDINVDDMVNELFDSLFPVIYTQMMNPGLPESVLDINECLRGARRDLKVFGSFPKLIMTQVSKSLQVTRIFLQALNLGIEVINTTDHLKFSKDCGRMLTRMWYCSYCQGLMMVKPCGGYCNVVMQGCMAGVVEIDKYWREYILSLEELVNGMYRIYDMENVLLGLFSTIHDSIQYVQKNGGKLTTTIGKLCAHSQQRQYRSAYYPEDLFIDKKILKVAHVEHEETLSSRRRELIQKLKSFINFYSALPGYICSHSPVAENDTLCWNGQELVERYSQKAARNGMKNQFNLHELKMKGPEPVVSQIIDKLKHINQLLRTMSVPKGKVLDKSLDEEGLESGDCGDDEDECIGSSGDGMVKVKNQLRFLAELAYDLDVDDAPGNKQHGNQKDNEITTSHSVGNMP
Method for GPC3 on HepG2 cells: The desired cells were expanded to a logarithmic growth phase in a T-75 cell culture flask, the medium was removed by pipetting, and the cells were washed twice with a PBS buffer, and digested with trypsin. Then a complete medium was added to stop the digestion, and the cells were blown into a single cell suspension. After counting, the cells were centrifuged, and the cell pellet was resuspended with an FACS buffer (PBS+2% fetal bovine serum) to 2×10⁶ cells/mL. The cell resuspension solution was added to a 96-well FACS reaction plate at 50 μl/well, and a humanized antibody sample to be tested was added at 50 μl/well for incubation at 4° C. for 1 h. […] After the plate was centrifuged and washed 3 times with a PBS buffer, 100 μl of the resulting solution was assayed and analyzed by FACS (FACS Canto™, purchased from BD Biosciences). Data analysis was performed by software (FlowJo) to obtain the mean fluorescence intensity (MFI) of the cells. Then, analysis was performed by software (GraphPad Prism8), data were fitted, and EC₅₀ values were calculated.

B1: hAb006LH3L1c (antibody, human IgG1, V domains shown)
VH: EVQLVQSGAEVKKPGSSVKVSCKASGYTFTDYEIHWVRQAPGQGLEWMGAIDPKTGNTAYNQKFMGRVTLTADKSTSTAYMELSSLRSEDTAVYYCTRYFSFAYWGQGTLVTVSS
VL: DIVMTQTPLSLPVTPGEPASISCRSSQTFVHSNRNTYLQWYLQKPGQSPQLLIYKVSNRFSGVPDRFSGSGSGTDFTLKISRVEAEDVGVYYCFQGSHVPYTFGQGTKLEIK
notes: Humanized F3.38.7, H3+L1c
Consider B1, for which, in the assay with GPC3 on HepG2 cells, it took 0.417 nM to reach a half-maximal effect (EC50). Also, in the assay with GPC3 on HepG2 cells, the “Max MFI” value came to 3520. The OD450 nm with monkey GPC3-His protein [1] came out at 1.24; in the assay with monkey GPC3-His protein [2], 1.32; with monkey GPC3-His protein [3], 1.33; with monkey GPC3-His protein [4], 0.122; with monkey GPC3-His protein [5], 0.332; in the assay with monkey GPC3-His protein [6], 0.876. The values for the OD450 nm with monkey GPC3-His protein [7] and with monkey GPC3-His protein [8] were 1.26 and 0.071, respectively.

B2: hAb007LH1L1e (antibody, human IgG1, V domains shown)
VH: B1 VH with T30S, I34M, A50T, K54E, M65K, L70I, Y99P, F100Y, F102L, A103T
VL: B1 VL with T28S, R34V, N35D
notes: Humanized F3.81.19, H1+L1e
B2 showed an EC50 with GPC3 on HepG2 cells of 10.1 nM. The “Max MFI” value with GPC3 on HepG2 cells was 2910. The OD450 nm is 0.399 with monkey GPC3-His protein [1]; 0.848 with monkey GPC3-His protein [2]; 1.17 with monkey GPC3-His protein [3]; 0.148 in the assay with monkey GPC3-His protein [4]; 0.14 with monkey GPC3-His protein [5]; 0.148 with monkey GPC3-His protein [6]. For the same molecule, the OD450 nm with monkey GPC3-His protein [7] amounted to 1.14; with monkey GPC3-His protein [8], 0.043.

B3: hAb006LH3L1d (antibody, human IgG1, V domains shown)
VH: B1 VH
VL: B1 VL with R34S
notes: Humanized F3.38.7, H3+L1d
Take B3: the response with GPC3 on HepG2 cells was half-maximal at 0.772 nM (EC50). In addition, in the assay with GPC3 on HepG2 cells, the “Max MFI” value came to 3500. For the same molecule, the OD450 nm is 1.1 with monkey GPC3-His protein [1]; 1.28 with monkey GPC3-His protein [2]; 1.29 with monkey GPC3-His protein [3]; 0.121 with monkey GPC3-His protein [4]; 0.308 in the assay with monkey GPC3-His protein [5]; 0.719 with monkey GPC3-His protein [6]. Moreover, the OD450 nm with monkey GPC3-His protein [7] stood at 1.3; with monkey GPC3-His protein [8], 0.068.

B4: hAb007LH1L1c (antibody, human IgG1, V domains shown)
VH: B1 VH with T30S, I34M, A50T, K54E, M65K, L70I, Y99P, F100Y, F102L, A103T
VL: B1 VL with T28S, R34A, N35D
notes: Humanized F3.81.19, H1+L1c
In turn, B4 registered a half-maximal effective concentration (EC50) with GPC3 on HepG2 cells of 3.67 nM. In the assay with GPC3 on HepG2 cells, the “Max MFI” value is 3770. Also, the OD450 nm in the assay with monkey GPC3-His protein [1] stood at 0.744; with monkey GPC3-His protein [2], 1.3; in the assay with monkey GPC3-His protein [3] it was 1.26; in the assay with monkey GPC3-His protein [4] it was 0.069; with monkey GPC3-His protein [5], 0.103; with monkey GPC3-His protein [6] it was 0.268. The OD450 nm with monkey GPC3-His protein [7] was 1.25; with monkey GPC3-His protein [8], 0.05.

B5: hAb007LH1L1d (antibody, human IgG1, V domains shown)
VH: B1 VH with T30S, I34M, A50T, K54E, M65K, L70I, Y99P, F100Y, F102L, A103T
VL: B1 VL with T28S, R34S, N35D
notes: Humanized F3.81.19, H1+L1d
The molecule B5 had an EC50 in the assay with GPC3 on HepG2 cells of 4.39 nM. Also, in the assay with GPC3 on HepG2 cells, the “Max MFI” value was determined as 3830. For the same molecule, the OD450 nm with monkey GPC3-His protein [1] was 0.752; in the assay with monkey GPC3-His protein [2], 1.2; with monkey GPC3-His protein [3], 1.3; with monkey GPC3-His protein [4] it was 0.078; in the assay with monkey GPC3-His protein [5], 0.09; in the assay with monkey GPC3-His protein [6] it was 0.235. Besides, the values for the OD450 nm with monkey GPC3-His protein [7] and in the assay with monkey GPC3-His protein [8] were 1.25 and 0.053, respectively.

B6: hAb006LH3L1e (antibody, human IgG1, V domains shown)
VH: B1 VH
VL: B1 VL with R34V
notes: Humanized F3.38.7, H3+L1e
Regarding B6, in the assay with GPC3 on HepG2 cells, a half-maximal effect (EC50) was put at 1.01 nM. The “Max MFI” value with GPC3 on HepG2 cells came out at 2780. Besides, the OD450 nm amounted to 1.14 in the assay with monkey GPC3-His protein [1]; 1.07 in the assay with monkey GPC3-His protein [2]; 1.22 with monkey GPC3-His protein [3]; 0.114 with monkey GPC3-His protein [4]; 0.24 with monkey GPC3-His protein [5]; 0.67 with monkey GPC3-His protein [6]. Moreover, the OD450 nm was found to be 1.26 with monkey GPC3-His protein [7] and 0.066 in the assay with monkey GPC3-His protein [8].

B7: hAb001H2L1b (antibody, human IgG1, V domains shown)
VH: EVQLVESGGGLVQPGGSLRLSCAASGFSFNTNAMNWVRQAPGKGLEWVGRIRSKSNNYATYYADSVKDRFTISRDDSKSSLYLQMNSLKTEDTAVYYCVRDGYYVLFAYWGQGTLVTVSS
VL: B1 VL with S25F, T28S, F29I, H31N, R34A, Q39E, Y41F, Y101F
notes: Humanized F2.169.2, H2+L1b
As for B7, the OD450 nm in the assay with murine GPC3-his protein [9] came to 1.09; with murine GPC3-his protein [10], 2.06; with murine GPC3-his protein [11] it was 2.38; with murine GPC3-his protein [12], 2.44; with monkey GPC3-His protein [13], 0.865; in the assay with monkey GPC3-His protein [14] it was 1.93. Besides, the OD450 nm with monkey GPC3-His protein [15] was 2.54; with monkey GPC3-His protein [16], 2.45; with murine GPC3-his protein [17], 0.407; with murine GPC3-his protein [18] it was 2.58; with murine GPC3-his protein [19], 2.64; in the assay with monkey GPC3-His protein [20], 0.317. Besides, the OD450 nm in the assay with monkey GPC3-His protein [21] came out at 2.47; with monkey GPC3-His protein [22], 2.58; with murine GPC3-his protein [23], 0.199; in the assay with monkey GPC3-His protein [24], 0.143.

(Values after patent US20260116991A1 (HAINAN SIMCERE ZAIMING PHARMACEUTICAL, published 2026).)
